Test results from patent US20220259315A1.

Key:
[1] = molecular target: human PD-1 (cell surface) (human) (UniProt Q15116); experiment: column 'Affinity (nM)'; per the footnote of Table 2, FACS staining of cell surface PD-1 on activated CD4 T cells (Table 5 prints 0.6 for MK3575)
[2] = molecular target: human PD-1 (cell surface) (human) (UniProt Q15116)
[3] = molecular target: human PD-1 (cell surface) (human) (UniProt Q15116); experiment: column 'Affinity (nM)'; per the footnote of Table 2, FACS staining of cell surface PD-1 on activated CD4 T cells

Chain of human PD-1 (cell surface) (human) (Q15116 25-288 limits assumed): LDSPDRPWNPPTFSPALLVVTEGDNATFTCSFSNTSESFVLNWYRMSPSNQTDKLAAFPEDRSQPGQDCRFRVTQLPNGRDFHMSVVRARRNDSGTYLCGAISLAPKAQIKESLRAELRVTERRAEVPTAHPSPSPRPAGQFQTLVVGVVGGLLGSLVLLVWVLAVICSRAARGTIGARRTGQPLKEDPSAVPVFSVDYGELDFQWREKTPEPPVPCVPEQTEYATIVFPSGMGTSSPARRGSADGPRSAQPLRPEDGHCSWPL

| Affinity [1] | EFRA, column 'Functional effect: % CFSE low CD8 T cells' [2] | Affinity [3] | Substance |
| --- | --- | --- | --- |
| 0.5 nM | – | – | MK-3475 (pembrolizumab) (antibody) |
| – | 100% | – | IgG1 control (antibody) |
| – | 175% | 0.6 nM | BMS-5C4 (antibody) |
